Laboratory results published in the supplement of paper PMC10567573.

B1: CDC25A (parent)
chain: TVAGKHQDLKYISPEIMASVLNGK
B2: TEKT4 (parent)
chain: LREKLLEAEQSLRNLEDIHMSLEK

Variants of: B1
Assay: protein stability index of a GFP-peptide fusion (GPS, HEK-293T) (PSI 1-6); higher = more stable
Settings: c terminus: a fixed tail appended
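Also: lentivirally expressed fusions sorted by FACS into six bins by GFP to DsRed ratio, PSI derived from sequencing read proportions per bin multiplied by bin number.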

Protein stability index, by site and new letter:
T1: Y 3.42 | P 3.34 | V 2.52 | S 3.14 | N 3.69 | M 2.34 | C 3.07 | I 2.6 | E 3.45 | D 3.29 | A 3.23 | G 3.06 | Q 3.22 | W 2.06 | L 2.15 | K 3.17 | F 1.9 | H 2.89 | R 2.52
A3: C 2.47 | G 3.14 | W 2.16 | S 2.93 | R 2.85 | I 2.61 | Y 2.79 | N 2.79 | H 2.85 | K 3.41 | P 3.52 | M 2.82 | F 2.56 | Q 2.7 | D 3.74 | E 3.39 | V 3.38 | T 3.31 | L 2.69
K5: T 3.68 | Q 3.53 | E 3.5 | R 3.2 | M 3.01 | G 3.6 | L 3.06 | S 3.5 | A 3.45 | I 2.55 | W 2.75 | H 3.54 | N 3.07 | D 3.56 | C 2.61 | Y 3.03 | V 3.21 | F 3.2 | P 3.17
G4: L 3.16 | F 2.38 | W 2.27 | D 3.27 | Q 3.42 | K 3.06 | V 3.38 | P 3.44 | Y 3.09 | N 3.54 | T 3.11 | A 2.82 | M 2.89 | E 3.78 | H 3.35 | R 3.5 | S 3.39 | C 2.82 | I 2.68
H6: P 3.38 | C 2.57 | R 2.81 | E 3.66 | L 2.13 | D 3.92 | T 3.24 | N 2.96 | A 3.73 | S 2.94 | V 2.45 | G 3.06 | I 2.63 | M 2.26 | K 3.27 | F 2.75 | Q 3.43
V2: H 3.33 | G 3.33 | R 3.21 | E 3.68 | M 3.11 | W 2.55 | K 2.92 | F 2.94 | Q 3.35 | A 3.28 | Y 2.79 | N 3.11 | P 3.51 | S 3.28 | L 2.96 | T 3.41 | I 2.91 | C 3.32 | D 3.89

Variants of: B2
Assay: as above
Settings: c terminus: a fixed tail appended

Protein stability index, by site and new letter:
K24: F 1.25 | L 1.93 | P 2.03 | E 2.53 | I 1.81 | N 2.13 | C 2.09 | G 2.52 | H 4 | Q 2.39 | T 2.98 | S 2.35 | R 2.44 | Y 1.68
Q10: Y 1.85 | W 1.98
I18: Y 2.3 | S 3.84 | T 3.28 | R 2.63 | M 1.95 | K 3.16 | Q 2.62 | E 1.69 | G 2.96 | N 3.43 | A 2.81 | W 3.13 | C 2.63 | F 3.02 | V 3.21 | D 3.33
H19: T 2.63 | N 2.93 | E 2.91 | A 1.76 | Q 3.91 | D 3.48 | R 2.42 | V 2.51 | S 3.43 | L 1.96 | C 2.96 | I 1.81 | K 2.8 | P 3.26 | M 2.79 | G 2.02 | F 1.83
D17: L 1.89 | N 1.62 | T 2.27 | C 2.46 | S 2.33 | W 1.76 | Q 2.23 | G 2.81 | P 2.7 | K 2.32 | Y 1.45 | F 1.79 | A 2.31 | I 1.58 | H 2.29 | M 2.42
R13: I 2.6 | M 2.52 | C 2.21 | H 3.38 | F 2.11 | Q 3.43 | K 2.22 | G 2.22 | L 2.18 | D 3.69 | Y 2.11 | S 1.89 | W 2.09 | V 2.96 | P 2.45 | T 2.61
M20: K 2.07 | G 3.51 | W 2.55 | Q 1.79 | Y 3.15 | L 2.58 | I 2.86 | T 2.98 | C 3.03 | E 2.17 | A 3.28 | R 2.36 | N 2.25 | D 2.71 | F 1.72
L15: H 3.22 | A 3.2 | Q 2.64 | R 2.38 | N 2.65 | M 2.56 | K 2.71 | G 2 | F 3.29 | T 2.47 | I 2.64 | Y 2.29 | E 2.71 | D 1.55 | W 1.93 | S 3.36 | C 2.81
L12: R 3.02 | S 3.62 | H 4.44 | Y 2.03 | N 4.57 | A 3.84 | W 1.79 | G 3.89 | P 4.6 | M 2.97 | E 4.97 | K 3.98 | F 1.69 | D 5.05 | V 3.3 | T 3.17
S11: Y 1.83 | I 4.94 | H 2.75 | W 1.48 | A 1.5 | G 2.28 | K 2.08 | Q 2.33 | P 4.21 | T 2.55 | M 1.05 | F 1.96 | L 1.83 | V 1.47 | D 2.57
N14: E 3.99 | K 2.27 | L 1.64 | V 2.56 | H 1.77 | R 2.78 | S 2.07 | D 2.27 | P 2.04 | G 2.71 | C 2.26 | W 1.35
S21: N 2.6 | K 2.37 | L 1.59 | V 2.35 | D 1.9 | W 2.38 | T 2.81 | H 1.99 | C 1.56 | R 3.24 | E 2.35 | F 2.63 | P 2.82 | Q 1.92 | G 3.25 | M 1.75
L22: E 2.98 | A 3.01 | V 2.09 | K 3.54 | W 1.55 | N 3.22 | H 2.89 | I 2.81 | F 1.98 | T 3.05 | G 2.4 | Y 2.08 | S 2.65 | M 2.7 | Q 2.33 | R 3.2 | C 3.73
E23: D 2.27 | V 2.07 | C 4.07 | F 2.3 | Y 1.93 | G 1.58 | I 1.88 | L 2.65 | N 1.47 | S 2.15 | T 1.71 | K 2.74 | A 3.45 | R 3.15 | H 2.21 | M 2.39
E16: Q 2.15 | V 2.06 | T 2.21 | W 1.18 | C 1.33 | H 1.59 | D 2.35 | L 1.47 | G 2.37 | N 1.94 | A 1.41 | S 2.25 | I 2.7 | M 1.93 | P 2.71 | K 2.3 | R 2.12
